Results: the supplement of paper PMC10724198
± gives the standard deviation of the averaged measurements.

Tests used:
Saccharomyces cerevisiae [1] = assay: protein stability index of tFT-peptide fusion (C-terminal peptide) (PSI (0-1 scale)); higher = more stable (slower turnover)
Protocol: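 MPS profiling in S. cerevisiae of the tFT-X12 degron library: putative degron peptides plus stable controls, 12 aa, fused to the C-terminus of a sfGFP-mCherry timer. Cells are FACS-sorted into 8 mCherry/sfGFP bins and deep-sequenced. PSI runs from 0 (unstable) to 1 (stable). Backgrounds are wild type, das1Δ and doa10Δ at 30 °C, and wild type, das1Δ, cdc34-1 and cdc53-1 at 37 °C; 2-3 technical replicates each.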

Saccharomyces cerevisiae [2] = assay: as above; conditions: genetic background: wild type; temperature: 30 C
[3] = genetic background: cdc34-1, temperature: 37 C
[4] = genetic background: cdc53-1, temperature: 37 C
[5] = genetic background: das1 deletion, temperature: 30 C
[6] = genetic background: das1 deletion, temperature: 37 C
[7] = genetic background: doa10 deletion, temperature: 30 C
[8] = genetic background: wild type, temperature: 30 C
[9] = genetic background: wild type, temperature: 37 C
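Note: PSI is a weighted mean of sequencing reads over stability bins, variants kept only with over 10 reads, mCherry proximal and sfGFP distal, peptide attached via GGGS linker.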

Sequence | protein stability index (Saccharomyces cerevisiae [1]; [3]) | protein stability index (Saccharomyces cerevisiae [1]; [4]) | protein stability index (Saccharomyces cerevisiae [1]; [5]) | protein stability index (Saccharomyces cerevisiae [1]; [6]) | protein stability index (Saccharomyces cerevisiae [1]; [7]) | protein stability index (Saccharomyces cerevisiae [1]; [8]) | protein stability index (Saccharomyces cerevisiae [1]; [9]) | protein stability index (Saccharomyces cerevisiae [2])
VFFHFFVCWRFV | 0.184 ± 0.068 | 0.231 ± 0.013 | 0.25 ± 0.032 | 0.3646 ± 0.00069 | 0.0556 ± 0.014 | 0.0548 ± 0.018 | 0.0857 ± 0.0019 | 0.121 ± 0.019
VFFLLSVYMVMM | 0.145 ± 0.018 | 0.29 ± 0.075 | 0.195 ± 0.055 | 0.3338 ± 0.0028 | 0.182 ± 0.03 | 0.184 ± 0.015 | 0.32 ± 0.02 | 0.307 ± 0.065
VFFTSLPPLLRA | 0.433 ± 0.015 | 0.4543 ± 0.0034 | 0.372 ± 0.021 | 0.51 ± 0.01 | 0.341 ± 0.006 | 0.37 ± 0.032 | 0.486 ± 0.013 | 0.458 ± 0.0096
VFIVVEFRLSLY | 0.122 ± 0.019 | 0.243 ± 0.074 | 0.174 ± 0.038 | 0.3023 ± 0.0029 | 0.1496 ± 0.0014 | 0.17 ± 0.0089 | 0.263 ± 0.0037 | 0.231 ± 0.073
VFKLGWVLCVLL | 0.286 ± 0.027 | 0.386 ± 0.0098 | 0.286 ± 0.01 | 0.389 ± 0.011 | 0.152 ± 0.0011 | 0.165 ± 0.0049 | 0.3 ± 0.0072 | 0.208 ± 0.024
VFLACSMTGGDA | 0.256 ± 0.029 | 0.326 ± 0.022 | 0.373 ± 0.067 | 0.27 ± 0.0086 | 0.413 ± 0.021 | 0.36 ± 0.049 | 0.264 ± 0.016 | 0.331 ± 0.022
VFLDCCLRVFVD | 0.252 ± 0.016 | 0.379 ± 0.028 | 0.228 ± 0.032 | 0.424 ± 0.014 | 0.188 ± 0.014 | 0.222 ± 0.023 | 0.389 ± 0.012 | 0.312 ± 0.011
VFLLFFFGLFVF | 0.348 ± 0.02 | 0.385 ± 0.0091 | 0.295 ± 0.037 | 0.418 ± 0.025 | 0.356 ± 0.043 | 0.314 ± 0.007 | 0.414 ± 0.035 | 0.415 ± 0.041
VFLPVMVFFTFS | 0.337 ± 0.013 | 0.457 ± 0.066 | 0.277 ± 0.03 | 0.49592 ± 0.00031 | 0.255 ± 0.0082 | 0.282 ± 0.016 | 0.469 ± 0.016 | 0.4 ± 0.013
VFRLLLFFVFVF | 0.266 ± 0.017 | 0.183 ± 0.068 | 0.287 ± 0.046 | 0.3848 ± 0.0031 | 0.279 ± 0.0075 | 0.236 ± 0.034 | 0.354 ± 0.015 | 0.37 ± 0.0056
VGAVGVCILFVW | 0.203 ± 0.0086 | 0.356 ± 0.014 | 0.242 ± 0.044 | 0.424 ± 0.0061 | 0.195 ± 0.016 | 0.232 ± 0.042 | 0.43 ± 0.013 | 0.35 ± 0.038
VGFYGRWVCVAC | 0.366 ± 0.053 | 0.462 ± 0.024 | 0.287 ± 0.015 | 0.435 ± 0.0074 | 0.236 ± 0.011 | 0.265 ± 0.019 | 0.384 ± 0.0068 | 0.29 ± 0.04
VGGSRGARLGVG | 0.352 ± 0.012 | 0.448 ± 0.014 | 0.389 ± 0.011 | 0.426 ± 0.0085 | 0.3945 ± 0.00071 | 0.384 ± 0.01 | 0.42 ± 0.021 | 0.386 ± 0.014
VGRANLSVIRKV | 0.632 ± 0.016 | 0.733 ± 0.016 | 0.636 ± 0.014 | 0.715 ± 0.019 | 0.243 ± 0.011 | 0.29 ± 0.024 | 0.588 ± 0.013 | 0.436 ± 0.013
VGSSSGRLLYLC | 0.595 ± 0.007 | 0.73 ± 0.0093 | 0.633 ± 0.0066 | 0.7466 ± 0.0065 | 0.2656 ± 0.002 | 0.302 ± 0.022 | 0.43 ± 0.0049 | 0.481 ± 0.0082
VGTIVLTCIEVN | 0.0595 ± 0.022 | 0.0586 ± 0.013 | 0.191 ± 0.022 | 0.22 ± 0.0081 | 0.1519 ± 0.00081 | 0.187 ± 0.011 | 0.205 ± 0.0017 | 0.279 ± 0.017
VGVVLWVWGLGD | 0.533 ± 0.026 | 0.6012 ± 0.0037 | 0.409 ± 0.033 | 0.636 ± 0.022 | 0.423 ± 0.0063 | 0.426 ± 0.032 | 0.61 ± 0.03 | 0.446 ± 0.035
VGVVVVGDVLVW | 0.286 ± 0.071 | 0.375 ± 0.02 | 0.279 ± 0.03 | 0.423 ± 0.0065 | 0.2321 ± 0.0019 | 0.26 ± 0.025 | 0.402 ± 0.0091 | 0.424 ± 0.046
VIQNKKKNKITS | 0.599 ± 0.048 | 0.6883 ± 0.0049 | 0.642 ± 0.013 | 0.736 ± 0.0094 | 0.177 ± 0.021 | 0.168 ± 0.015 | 0.284 ± 0.018 | 0.372 ± 0.027

Sequence | protein stability index (Saccharomyces cerevisiae [1]; [3]) | protein stability index (Saccharomyces cerevisiae [1]; [4]) | protein stability index (Saccharomyces cerevisiae [1]; [5]) | protein stability index (Saccharomyces cerevisiae [1]; [6]) | protein stability index (Saccharomyces cerevisiae [1]; [7]) | protein stability index (Saccharomyces cerevisiae [1]; [8]) | protein stability index (Saccharomyces cerevisiae [1]; [9]) | protein stability index (Saccharomyces cerevisiae [2])
VIYYVRVGLVLS | 0.0324 ± 0.0007 | 0.115 ± 0.053 | 0.119 ± 0.03 | 0.167 ± 0.0084 | 0.108 ± 0.016 | 0.117 ± 0.045 | 0.126 ± 0.016 | 0.203 ± 0.025
VLARGFHCMYFC | 0.68 ± 0.025 | 0.736 ± 0.022 | 0.621 ± 0.022 | 0.75484 ± 0.00037 | 0.444 ± 0.022 | 0.447 ± 0.021 | 0.623 ± 0.02 | 0.484 ± 0.048
VLGPRFCFVCHA | 0.555 ± 0.067 | 0.604 ± 0.03 | 0.444 ± 0.039 | 0.6194 ± 0.0023 | 0.223 ± 0.0071 | 0.253 ± 0.033 | 0.4594 ± 0.003 | 0.3455 ± 0.0025
VLLSSSLVFLIS | 0.597 ± 0.022 | 0.6439 ± 0.0011 | 0.522 ± 0.016 | 0.631 ± 0.018 | 0.385 ± 0.016 | 0.416 ± 0.02 | 0.575 ± 0.0085 | 0.462 ± 0.044
VLVCYFCRYISH | 0.479 ± 0.059 | 0.579 ± 0.052 | 0.413 ± 0.046 | 0.573 ± 0.011 | 0.365 ± 0.0057 | 0.398 ± 0.021 | 0.5316 ± 0.0028 | 0.485 ± 0.0091
VLVTFFIRSGVS | 0.456 ± 0.0087 | 0.54 ± 0.0081 | 0.356 ± 0.042 | 0.536 ± 0.018 | 0.311 ± 0.01 | 0.338 ± 0.028 | 0.49942 ± 1.4e-06 | 0.411 ± 0.045
VMFCRFPLRFGC | 0.662 ± 0.031 | 0.726 ± 0.03 | 0.631 ± 0.0071 | 0.7445 ± 0.0057 | 0.3191 ± 0.0022 | 0.348 ± 0.023 | 0.561 ± 0.021 | 0.475 ± 0.026
VPTRRRGNRRPA | 0.673 ± 0.022 | 0.7259 ± 0.0048 | 0.639 ± 0.021 | 0.725 ± 0.018 | 0.641 ± 0.011 | 0.653 ± 0.015 | 0.706 ± 0.02 | 0.788 ± 0.03
VQVLVAIMDGRM | 0.346 ± 0.023 | 0.4143 ± 0.0016 | 0.371 ± 0.031 | 0.387 ± 0.004 | 0.38 ± 0.039 | 0.37 ± 0.019 | 0.39 ± 0.017 | 0.354 ± 0.011
VRFLSLNVLFFC | 0.54 ± 0.032 | 0.625 ± 0.022 | 0.482 ± 0.025 | 0.628 ± 0.028 | 0.222 ± 0.0066 | 0.244 ± 0.029 | 0.48 ± 0.0046 | 0.38 ± 0.033
VRGWLAYLRWII | 0.58 ± 0.03 | 0.638 ± 0.026 | 0.631 ± 0.027 | 0.724 ± 0.0083 | 0.195 ± 0.012 | 0.205 ± 0.018 | 0.303 ± 0.0047 | 0.274 ± 0.018
VSFGELGVEVVG | 0.709 ± 0.022 | 0.735 ± 0.041 | 0.529 ± 0.017 | 0.736 ± 0.017 | 0.538 ± 0.014 | 0.559 ± 0.018 | 0.7148 ± 0.0022 | 0.451 ± 0.022
VSGEWSFLVRVQ | 0.548 ± 0.026 | 0.573 ± 0.0061 | 0.452 ± 0.025 | 0.61 ± 0.027 | 0.392 ± 0.0066 | 0.411 ± 0.024 | 0.554 ± 0.012 | 0.39 ± 0.15
VSISLCVLCPVF | 0.268 ± 0.01 | 0.319 ± 0.016 | 0.258 ± 0.024 | 0.356 ± 0.0076 | 0.2408 ± 0.0018 | 0.261 ± 0.016 | 0.312 ± 0.008 | 0.349 ± 0.018
VSLSWFSCCFVG | 0.497 ± 0.066 | 0.556 ± 0.03 | 0.439 ± 0.026 | 0.489 ± 0.023 | 0.376 ± 0.026 | 0.377 ± 0.019 | 0.458 ± 0.01 | 0.386 ± 0.0073
VSVFSLFLFLRV | 0.25 ± 0.047 | 0.194 ± 0.022 | 0.357 ± 0.03 | 0.413 ± 0.045 | 0.531 ± 0.031 | 0.35 ± 0.03 | 0.353 ± 0.049 | 0.421 ± 0.0044
VSVVLKTQRVVC | 0.595 ± 0.026 | 0.607 ± 0.008 | 0.432 ± 0.039 | 0.60289 ± 0.00044 | 0.3 ± 0.0041 | 0.346 ± 0.033 | 0.535 ± 0.01 | 0.4809 ± 0.0012
VTFWISLVYVLV | 0.192 ± 0.015 | 0.264 ± 0.022 | 0.18 ± 0.023 | 0.35 ± 0.0028 | 0.148 ± 0.0088 | 0.16 ± 0.017 | 0.279 ± 0.027 | 0.218 ± 0.011
VTVWVFVFLRGL | 0.319 ± 0.0069 | 0.393 ± 0.015 | 0.315 ± 0.029 | 0.454 ± 0.029 | 0.294 ± 0.0043 | 0.302 ± 0.019 | 0.453 ± 0.0035 | 0.374 ± 0.052
